For five molecules, response results are on record in paper PMC9287160.

Numbering of substitutions follows the chain as printed. Numbers in names are those of the source.

B1: nanobody hCD11bNb1 (His-tagged) N101A (protein)
chain: QVQLVETGGGLVQAGGSLRLSCAASGNINSFNAMGWFRQAPGKQRELVAAITFGGRTNYADSVKGRFTISRDNTKGSVYLQMNSLKPEDTAVYYCAASEANLLTGVWHYWGRGTQVTVSS
B2: nanobody hCD11bNb1 (His-tagged) F32A (protein)
chain: B1 chain with F31A, A100N
B3: nanobody hCD11bNb1 (His-tagged) I29A (protein)
chain: B1 chain with I28A, A100N
B4: nanobody hCD11bNb1 (His-tagged) N30A (protein)
chain: B1 chain with N29A, A100N
B5: nanobody hCD11bNb1 (His-tagged) F54A (protein)
chain: B1 chain with F53A, A100N

In this test the target is human integrin αMβ2 headpiece fragment, P11215;P05107. The experiment in a line: BLI competition assay. The following applies: chain shown with the change; 20 nM αMβ2 HP preincubated with 10-fold molar excess of nanobody variant; immobilized biotinylated avi-tagged WT hCD11bNb1; signal is HP binding to the sensor …; parent: est. 0.31; read off a plot.
For B1, the response is 1.2 nm.
Turning to B2, the response turned out to be 1.1 nm.
With B3, the response stood at 0.45 nm.
For B4 the value was 0.98 nm.
As to B5, the response turned out to be 1.2 nm.
